According to patent US20060257938A1, “Method of screening for drugs that block ligand binding to a lipid binding protein” (priority 2005, published 2006):

How the values were obtained:
Format in all cases: binding
[1] = Probe fluorescence ratio response to arachidonic acid relative to ADIFAB2; conditions: arachidonic acid; response relative to ADIFAB2
Procedure, shortened: (§1)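 Fluorescently labeled rat intestinal FABP variants were read at two emission wavelengths, near the unbound maximum (about 420 to 480 nm) and the FFA-bound maximum (about 495 to 580 nm). R = Fλ1/Fλ2 after subtracting probe-free intensity; ΔR = R+agent − R0, normalized to ADIFAB2 (rI-FABP-L72A).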

[2] = Probe fluorescence ratio response to linolenic acid relative to ADIFAB2; conditions: response relative to ADIFAB2
Procedure, shortened: as §1

[3] = Probe fluorescence ratio response to linoleic acid relative to ADIFAB2; conditions: response relative to ADIFAB2
Procedure, shortened: as §1

[4] = Probe fluorescence ratio response to oleic acid relative to ADIFAB2; conditions: response relative to ADIFAB2
Procedure, shortened: as §1

[5] = Probe fluorescence ratio response to palmitic acid relative to ADIFAB2; conditions: response relative to ADIFAB2
Procedure, shortened: as §1

[6] = Probe fluorescence ratio response to palmitoleic acid relative to ADIFAB2; conditions: response relative to ADIFAB2
Procedure, shortened: as §1

[7] = Probe fluorescence ratio response to stearic acid relative to ADIFAB2; conditions: response relative to ADIFAB2
Procedure, shortened: as §1

Molecule	DR/DR AA [1]	DR/DR LNA [2]	DR/DR LA [3]	DR/DR OA [4]	DR/DR PA [5]	DR/DR POA [6]	DR/DR SA [7]
18I 31V 55V 73V 72A (protein, listed as Rattus norvegicus, PEPTIDE (1)...(131) wild-type rat intestinal fatty acid binding protein) AFDGTWKVDRNENYEKFIEKMGINVVKRKLVAHDNLKLTITQEGNKFTVKESSNVRNIDVVFELGVDFAYSAVDGTELTGTWTMEGNKLVGKFKRVDNGKELIAVREISGNELIQTYTYEGVEAKRIFKKE	0.632	1.179	0.853	0.448	0.974	1.236	0.233
72T 74S (protein, listed as Rattus norvegicus, PEPTIDE (1)...(131) wild-type rat intestinal fatty acid binding protein) AFDGTWKVDRNENYEKFMEKMGINVVKRKLGAHDNLKLTITQEGNKFTVKESSNFRNIDVVFELGVDFAYSTASGTELTGTWTMEGNKLVGKFKRVDNGKELIAVREISGNELIQTYTYEGVEAKRIFKKE	2.035	2.621	2.469	2.252	2.209	2.471	1.779
72S 73V 74A (protein, listed as Rattus norvegicus, PEPTIDE (1)...(131) wild-type rat intestinal fatty acid binding protein) AFDGTWKVDRNENYEKFMEKMGINVVKRKLGAHDNLKLTITQEGNKFTVKESSNFRNIDVVFELGVDFAYSSVAGTELTGTWTMEGNKLVGKFKRVDNGKELIAVREISGNELIQTYTYEGVEAKRIFKKE	2.127	2.330	2.397	2.295	2.601	2.727	1.572
72A 73P 74E (protein, listed as Rattus norvegicus, PEPTIDE (1)...(131) wild-type rat intestinal fatty acid binding protein) AFDGTWKVDRNENYEKFMEKMGINVVKRKLGAHDNLKLTITQEGNKFTVKESSNFRNIDVVFELGVDFAYSAPEGTELTGTWTMEGNKLVGKFKRVDNGKELIAVREISGNELIQTYTYEGVEAKRIFKKE	1.975	1.863	1.741	1.802	1.732	2.087	1.512
14M 18L 31W 73I 117G 72A (protein, listed as Rattus norvegicus, PEPTIDE (1)...(131) wild-type rat intestinal fatty acid binding protein) AFDGTWKVDRNENMEKFLEKMGINVVKRKLWAHDNLKLTITQEGNKFTVKESSNFRNIDVVFELGVDFAYSAIDGTELTGTWTMEGNKLVGKFKRVDNGKELIAVREISGNELIQTGTYEGVEAKRIFKKE	2.032	1.869	2.034	1.712	0.998	1.569	0.487
74Q 72A 73F (protein, listed as Rattus norvegicus, PEPTIDE (1)...(131) wild-type rat intestinal fatty acid binding protein) AFDGTWKVDRNENYEKFMEKMGINVVKRKLGAHDNLKLTITQEGNKFTVKESSNFRNIDVVFELGVDFAYSAFQGTELTGTWTMEGNKLVGKFKRVDNGKELIAVREISGNELIQTYTYEGVEAKRIFKKE	0.465	1.025	0.711	0.390	0.649	1.479	0.177
72T 73I 74A (protein, listed as Rattus norvegicus, PEPTIDE (1)...(131) wild-type rat intestinal fatty acid binding protein) AFDGTWKVDRNENYEKFMEKMGINVVKRKLGAHDNLKLTITQEGNKFTVKESSNFRNIDVVFELGVDFAYSTIAGTELTGTWTMEGNKLVGKFKRVDNGKELIAVREISGNELIQTYTYEGVEAKRIFKKE	2.148	1.944	1.795	1.721	1.687	2.320	1.359
72T 73G 74I (protein, listed as Rattus norvegicus, PEPTIDE (1)...(131) wild-type rat intestinal fatty acid binding protein) AFDGTWKVDRNENYEKFMEKMGINVVKRKLGAHDNLKLTITQEGNKFTVKESSNFRNIDVVFELGVDFAYSTGIGTELTGTWTMEGNKLVGKFKRVDNGKELIAVREISGNELIQTYTYEGVEAKRIFKKE	2.226	2.317	2.577	2.414	2.177	2.771	1.755
38Y 117A 72A (protein, listed as Rattus norvegicus, PEPTIDE (1)...(131) wild-type rat intestinal fatty acid binding protein) AFDGTWKVDRNENYEKFMEKMGINVVKRKLGAHDNLKYTITQEGNKFTVKESSNFRNIDVVFELGVDFAYSAADGTELTGTWTMEGNKLVGKFKRVDNGKELIAVREISGNELIQTATYEGVEAKRIFKKE	2.216	1.547	1.869	1.976	0.933	0.839	1.201
72E 73V 74A (protein, listed as Rattus norvegicus, PEPTIDE (1)...(131) wild-type rat intestinal fatty acid binding protein) AFDGTWKVDRNENYEKFMEKMGINVVKRKLGAHDNLKLTITQEGNKFTVKESSNFRNIDVVFELGVDFAYSEVAGTELTGTWTMEGNKLVGKFKRVDNGKELIAVREISGNELIQTYTYEGVEAKRIFKKE	0.478	0.784	0.735	0.524	0.736	1.093	0.234
18I 31M 55M 72A (protein, listed as Rattus norvegicus, PEPTIDE (1)...(131) wild-type rat intestinal fatty acid binding protein) AFDGTWKVDRNENYEKFIEKMGINVVKRKLMAHDNLKLTITQEGNKFTVKESSNMRNIDVVFELGVDFAYSAADGTELTGTWTMEGNKLVGKFKRVDNGKELIAVREISGNELIQTYTYEGVEAKRIFKKE	1.010	1.358	1.134	0.601	1.099	1.353	0.296
18V 31A 55I 72A (protein, listed as Rattus norvegicus, PEPTIDE (1)...(131) wild-type rat intestinal fatty acid binding protein) AFDGTWKVDRNENYEKFVEKMGINVVKRKLAAHDNLKLTITQEGNKFTVKESSNIRNIDVVFELGVDFAYSAADGTELTGTWTMEGNKLVGKFKRVDNGKELIAVREISGNELIQTYTYEGVEAKRIFKKE	0.989	1.580	1.334	0.791	1.280	1.563	0.420
72S 74A (protein, listed as Rattus norvegicus, PEPTIDE (1)...(131) wild-type rat intestinal fatty acid binding protein) AFDGTWKVDRNENYEKFMEKMGINVVKRKLGAHDNLKLTITQEGNKFTVKESSNFRNIDVVFELGVDFAYSSAAGTELTGTWTMEGNKLVGKFKRVDNGKELIAVREISGNELIQTYTYEGVEAKRIFKKE	1.648	2.002	2.037	1.575	1.615	2.034	1.114
18I 31Y 73G 72A (protein, listed as Rattus norvegicus, PEPTIDE (1)...(131) wild-type rat intestinal fatty acid binding protein) AFDGTWKVDRNENYEKFIEKMGINVVKRKLYAHDNLKLTITQEGNKFTVKESSNFRNIDVVFELGVDFAYSAGDGTELTGTWTMEGNKLVGKFKRVDNGKELIAVREISGNELIQTYTYEGVEAKRIFKKE	1.796	2.706	2.559	1.632	1.886	2.637	0.860
18I 31Y 72A (protein, listed as Rattus norvegicus, PEPTIDE (1)...(131) wild-type rat intestinal fatty acid binding protein) AFDGTWKVDRNENYEKFIEKMGINVVKRKLYAHDNLKLTITQEGNKFTVKESSNFRNIDVVFELGVDFAYSAADGTELTGTWTMEGNKLVGKFKRVDNGKELIAVREISGNELIQTYTYEGVEAKRIFKKE	2.205	2.813	2.790	2.096	1.762	2.639	0.994
